Experimental data published in CN112341541A (INST FOR VIRAL DISEASE CONTROL AND PREVENTION CHINESE …, dated 2021).

Target: T1, 新型冠状病毒S1蛋白 (纯化) (SARS-CoV-2, UniProt P0DTC2 14-685)
T1 construct: domain: S1
Experiment: SPR, BIAcore 8000, purified S1 protein coupled to the chip, 1:1 binding fit

B1: 人源抗新冠病毒中和性抗体nCoV-163 全抗体IgG (antibody, V domains shown)
VH: EVQLVESGGGLVQPGGSLRLSCEASEIIVNRNYMNWVRQAPGKGLEWVSIIYPGGSTFYADSVKGRFTISRDNSKNTMYLQMNSLRAEDTAVYYCARSYGDFYVDFWGQGTLVTVSS
VL: EIVLTQSPVTLSLSPGERATLSCRASQSVSSSYLAWYQQKPGQAPRLLIYGASSRATGIPDRFSGSGSGTDFTLTISRLEPEDFAVYYCQQHGRTFGQGTKVEIKR
notes: also called nCoV-163号抗体
Kd: < 4.88 pM
